Source: the DeepSol protein solubility set

Experiment: soluble on expression in E. coli; label from the status in PepcDB or PDB records

Sequence | soluble on expression in E. coli
MIKTDLNDFAWFVHVVEEGGFAAAGRALDEPKSKLSRRIAQLEERLGVRLIQRTTRQFNVTEVGQTFYEHCKAMLVEAQAAQDAIAALQVEPRGIVKLTCPVTLLHVHIGPMLAKFMARYPDVSLQLEATNRRVDVVGEGVDVAIRVRPRPFEDSDLVMRVLADRGHRLFASPDLIARMGIPSAPAELSHWPGLSLASGKHIHRWELYGPQGARAEVHFTPRMITTDMLALREAAMAGVGLVQLPVLMVKEQLAAGELVAVLEEWEPRREVIHAVFPSRRGLLPSVRALVDFLTEEYARMVEE | not soluble
MRSRPTEGNLLVSIGIPFLNPGPYLDLAVRSVFAQTYLNWELILVDDGSTDGSYERAVAIQDPRVRVLRDGQNKGLPARLNEIVRLAKGELVARMDADDAMHPLRLEKQVGFLQANPELDGVTTGAYLIDAEDRPIALLPGRQPSAQEVLARGGFLHPSLLARKSWFEAHPYSLDYPRAEDRELFVRTFKTSRLHVLSEPLYFYRWFGVPRGKTLRIGYRSERKVMWKYGPNLVGWGPSLRLIALSFGKELLTWFLEWTHLEKGFQTRRAFQPLLEMDQREALRTLKVIRETCVPGWD | soluble
MGSITENTSWNKEFSAEAVNGVFVLCKSSSKSCATNDLARASKEYLPASTFKIPNAIIGLETGVIKNEHQVFKWDGKPRAMKQWERDLTLRGAIQVSAVPVFQQIAREVGEVRMQKYLKKFSYGNQNISGGIDKFALEGQLRISAVNQVEFLESLYLNKLSASKENQLIVKEALVTEAAPEYLVHSKTGFSGVGTESNPGVAWWVGWVEKETEVYFFAFNMDIDNESKLPLRKSIPTKIMESEGIIGG | soluble
GLAIEGPSEAKMSCKDNKDGSCTVEYIPFTPGDYDVNITFGGRPIPGSPFRVPVKDVVDPGKVKCSGPGLGAGVRARVPQTFTVDCSQAGRAPLQVAVLGPTGVAEPVEVRDNGDGTHTVHYTPATDGPYTVAVKYADQEVPRSPFKIKVLPAHDASKVRASGPGLNASGIPASLPVEFTIDARDAGEGLLTVQILDPEGKPKKANIRDNGDGTYTVSYLPDMSGRYTITIKYGGDEIPYSPFRIHALPTGDASKCLVTVSIGGHGLGACLGPRIQIGQETVITVDAKAAGEGKVTCTVSTPDGAELDVDVVENHDGTFDIYYTAPEPGKYVITIRFGGEHIPNSPFHVLACDPLPHEEEPSEVPQLRQPYAPPRPGARPTHWATEEPVVPVEPMESMLRPFNLVIPFAVQKGELTGEVRMPSGKTARPNITDNKDGTITVRYAPTEKGLHQMGIKYDGNHIPGSPLQFYVDAINSRHVSAYGPGLSHGMVNKPATFTIVTKDAGEGGLSLAVEGPSKAEITCKDNKDGTCTVSYLPTAPGDYSIIVRFDDKHIPGSPFTAKITGDDSMRTSQLNVGTSTDVSLKITESDLSQLTASIRAPSGNEEPCLLKRLPNRHIGISFTPKEVGEHVVSVRKSGKHVTNSPFKILVGPSEIGDASKVRVWGKGLSEGHTFQVAEFIVDTRNAGYGGLGLSIEGPSKVDINCEDMEDGTCKVTYCPTEPGTYIINIKFADKHVPGSPFTVKVTGEGRMKESITRRRQAPSIATIGSTCDLNLKIPGNWFQMVSAQERLTRTFTRSSHTYTRTERTEISKTRGGETKREVRVEESTQVGGDPFPAVFGDFLGRERLGSFGSITRQQEGEASSQDMTAQVTSPSGKVEAAEIVEGEDSAYSVRFVPQEMGPHTVAVKYRGQHVPGSPFQFTVGPLGEGGAHKVRAGGTGLERGVAGVPAEFSIWTREAGAGGLSIAVEGPSKAEIAFEDRKDGSCGVSYVVQEPGDYEVSIKFNDEHIPDSPFVVPVASLSDDARRLTVTSLQETGLKVNQPASFAVQLNGARGVIDARVHTPSGAVEECYVSELDSDKHTIRFIPHENGVHSIDVKFNGAHIPGSPFKIRVGEQSQAGDPGLVSAYGPGLEGGTTGVSSEFIVNTLNAGSGALSVTIDGPSKVQLDCRECPEGHVVTYTPMAPGNYLIAIKYGGPQHIVGSPFKAKVTGPRLSGGHSLHETSTVLVETVTKSSSSRGSSYSSIPKFSSDASKVVTRGPGLSQAFVGQKNSFTVDCSKAGTNMMMVGVHGPKTPCEEVYVKHMGNRVYNVTYTVKEKGDYILIVKWGDESVPGSPFKVKVP | soluble
MGSSHHHHHHSSGLVPRGSSRRKSNCVKEVEKLQEKREKRRLQQQELREKRAQDVDATNPNYEIMCMIRDFRGSLDYRPLTTADPIDEHRICVCVRKRPLNKKETQMKDLDVITIPSKDVVMVHEPKQKVDLTRYLENQTFRFDYAFDDSAPNEMVYRFTARPLVETIFERGMATCFAYGQTGSGKTHTMGGDFSGKNQDCSKGIYALAARDVFLMLKKPNYKKLELQVYATFFEIYSGKVFDLLNRKTKLRVLEDGKQQVQVVGLQEREVKCVEDVLKLIDIGNSCRTSGQTSANAHSSRSHAVFQIILRRKGKLHGKFSLIDLAGNERGADTSSADRQTRLEGAEINKSLLALKECIRALGRNKPHTPFRASKLTQVLRDSFIGENSRTCMIATISPGMASCENTLNTLRYANRVKEL | soluble
LKQKVENLFNEKCGEALGLKQAVKVPFALFESFPEDFYVEGLPEGVPFRRPSTFGIPRLEKILRNKAKIKFIIKKPEMFETAIKES | soluble
MRRIILIFSLLTLSLMAFGEEIKVDRSVEESITKDYDQDGVYSSYEKALRRAQESVYVKLPEKRGYWYTILDRVKAEEEELMPEEINRMRRR | not soluble
MYLVCGEALFDVFSLESAARSNELGFTAIAGGSPFNVAVGLRRLGVEAALFGGLSSDYLGARLRRVLEEEGVDCGFLVPSDAPTTLAMVGLDASGSAQYQFRGEGCADRQVRLEHLPTLDGRIRGLHVGSYTLVVTPVADTLLALVRRESGRRLVSLDPNVRLDPQPDIDLWRRRVEAFASHAHLIKASEEDLALLYPGRDPGEVARGWLNPRCRLVFVTHGGAGASVHCTHGSWSRPADTALPLRDTVGAGDTFQAATLAYLRRLDADSPAGLAALSREAIDAMLAFAIRAAAVTCSRVGPDLPFAHEL | not soluble
MKNVEEQAEREIALSDEMVLQFLQQNPDFFIRNARPVEQMRVPHPVRGTVSLVEWQLARQRNHITQLEEEITLLMEQAGANEVLFNRLLGLQTELASAESLTDMLDRLQRWARQLGLAGAAVRLFSDKWRIGAPSDFTHLGLNRSSFEPLRIQRFGQHNHYLGSLNGPELLLLLPQARQVGSVALSLMGNHHDLGVLIFSSRDSHHYQNGMGTVLLQQMAMMLPAMLARWVERVLEHHHHHH | not soluble
MSLDFSEPLLGFEPRDTEIGRRLEVWKAMQALTGPKNLLSLSPDPEMNSSSLLSTLSPAAWGRAEESVVRTKRMVGPVEVKEEENFFCGRPEKSHAKLVFVSTSGGSLWNLQAIHSMCRIEQEQIRSHISFGALCQRSAANECCPSWSLGNYLAVLSNRSSCQDTTQADTDRTLALLRFCATFYHRGVLVPACVGSSQDKPPFCAQVPAKCTGSNVVYEFLHYLLDRDFLSPQTADYQVPSLKFALLFLPIIKTSSLLDIYLDGLGDPIKVSDNYTSISGMDLGLKPRLLKYYLAEDTEGHHHHHH | not soluble
MGSDKIHHHHHHMGDDILSQEEVDALLRGVSGEDEDDDGGQDAQGVRGYDIGRQERIVRGRMPTLEIINERFARNLRIGLFNFLRRNAEISVGPVRVQKYSEFIRNLVVPTNLNLVHVKPLRGTGLLIFDPDLVFLIVDNLFGSDGRYHVRVEGRDFTPTEQRIIHRLLEVVFTECQKAWEPVYPIEFVYLRSEMNTQFANIATPTEVVVAMTFHIELGAGGGDFHICLPYSMVEPIRDLLSSTMQADRTEVDNRWVNLMTHQVQAAEVELVASLAHAKVTLGQILNLKNGDVVMIEIPERVEADVSGIPVFEASYGTVQGRYALKVEKILAGTNEFLESPGEHEQ | not soluble
AHHHHHHGSKRRAVVLFSGGLDSTACLYWAKKQYDEVIMLTVNYGSNEERVTNKVAEYFSKELDVRLKIVKLDFLKEFSEIRGSSLVGGEVPRVTAEELEDIEKASETARSVWIPARNLVLISVAASLLDALGGGDIIVGFNAEEATTFPDNSREFVEKLNEALRFATLNPVKVVAPLIDLDKRGIAKLLKELNAKYEYSNSCYNPKGFTEDGRPIHCGECESCVRRHKGLIEGIGEDKTVYAITPRI | not soluble
MGSDKIHHHHHHMRQTFIARKISFISLIHFRDEYMSPQNNHLQRPPAAVLYADELAKLKQNDNAPCPPGWQLSLPAARAFILGDSAQNISRKVVISPSAVERMLVTLATGRGLMLVGEPGTAKSLLSELLATSISGDAGLTIQGGASTTEDQIKYGWNYALLINHGPSTEALVPAPLYQGMRDGKIVRFEEITRTPLEVQDCLLGMLSDRVMTVPELTGEASQLYAREGFNIIATANTRDRGVNEMSAALKRRFDFETVFPIMDFAQELELVASASARLLAHSGIPHKVPDAVLELLVRTFRDLRANGEKKTSMDTLTAIMSTAEAVNVAHAVGVRAWFLANRAGEPADLVDCIAGTIVKDNEEDRARLRRYFEQRVATHKEAHWQAYYQARHRLP | not soluble
MGSDKIHHHHHHMTWGCHHLIKKVDASFSLGPISFTLEPGTVTALVGDNGSGKSTFFRLWMDLIKANQGTWERKEGWKEDTAYVPQQLIGIEAFTLEELAYLYEGMYVKWDQKTFERLVESFSLPMKKPLHSLSVGMQKKALFSMAIARKPNLFLLDEPFAGVDMDGQEQMKDELIRYLTGHEQATVLFATHSAQEVKELADYLLVLHQGQMLGFYEKDRLLSSWGRFWLEGNASAIKNEENVVSMKIAGTRIEIITSDALRFEEQIAAAALEKVEAQPLELHEIVRLLKKRNVSVS | not soluble
MSLIRGVIGYTITPFTADGTLDLDALGTSIDSLIAGGVHAIAPLGSTGEGAYLSDSEWETVVRFSQARIAGRVPSVVSVSDLTTARTVQRARLAQACGATAVMVLPISYWKLTEAEVVAHYKAVGAAIDIPIMLYNNPGTSGTDLSVELILRILGEVPNVTMVKESTGDIQRMHRLFTATDGQVAFYNGCNPLTLEALVAGATGWCTAAPNLIPALNLALWDAVQQGDLAEARALFYRQYELLEYITRRGLPTTIKAGLKMLGQDVGAPRLPLQPLDAQGSNHLKSLLEGHHHHHH | soluble
MSQLINLPMDQILYLSTSDIKHHVHLQTIHTLMDIRANLADFKKIHKKLYPCHRSYIVNTDMIISVNKTNYEATLINGQVLPVSRMKIGKIAQIVEERGRLEHHHHHH | not soluble
MTKVTIKAPSDYLQTDWSGGETNQLFLYPEDGDYKKREFSYRLSTATVALRQTTFTRLDGYHRILMSLDKPITLSDLSHAKEISLAPFQPYAFEGDTRIVSRGTCQDINLMYDDQYQGQLLPVWSDTPFEAPKADCQLLYALSKLTYSVTNQANQELEANHLLVTEQEASLSDLKVCLNQTSPAQTPVAVWAGLWYKT | not soluble
SKVLLVFDFDNTIIDDNSDTWIIQCAPDKKLPIELQDSYQKGLWTEFMGRVFKYLRDEGVKEEELKRAVTSLPFTSGMIELLSFLRMNKDRFDCIIISDSNSIFIDWVLEAAAFHDVFDTVFTNPASFDSTGRLTVRNCHTHACTRCPKNLCKNTVLGEFIDKQLQKGVRYTRIVYIGDGGNDVCPVTFLKKNDVAMPREGYTLHRTLDKMSQNLEPMASSIVVWSSGMEIISHLQFLIQM | soluble
